Assay results as given in US20230357364A1 (INTERNATIONAL AIDS VACCINE INITIATIVE, published 2023).
Substitutions are numbered along the chain they refer to. Like-named read-outs stand apart in the source and are kept apart here.

B1: L25.dP06E11 (antibody, V domains shown)
VH: QVQLVESGGGLVQPGRSLRLSCAASGFTFDDYAMHWVRQAPGKGLEWVSGISWNSGSIGYADSVKGRFTISRDNAKNSLYLQMNGLRAEDTALYYCAKVPQRSRYLVGWFDPWGQGTLVTVSS
VL: not shown
notes: human IgG1
B2: L6.dP02F01 (antibody, V domains shown)
VH: EVQLVESGGGLVQPGRSLRLSCAASGFTFDDYAMHWVRQAPGKGLEWVSGISWNSGSIAFAGSVKGRFTISRDNAKNSLYLQMNSLRAEDTALYYCAKDQGYSYGNYFDYWGQGTLVTVSS
VL: QLVLTQPPSVSVAPGKTARITCGGNNIGSKSVYWYQQKPGQAPVLVVYDDSDRPSGIPERFSGSNSGNTATLTISRVEAGDEADYYCQVWDSSSDHPYVFGSGTKVTVL
notes: human IgG1
B3: L12.bP11A06 (antibody, V domains shown)
VH: EVQLVESGGGLIQPGGSLRLSCAASGLTVSSNYMSWVRQAPGKGLEWVSVIYSGGSTFYADSVKGRFTISRDNSKNTLYLQMNSLRAEDTAVYYCARDLDVYGLDVWGQGTTVTVSS
VL: DIVMTQSPSFLSASVGDRVTITCRASQGISSYLAWYQQKPGKAPKLLIYAASTLQSGVPSRFSGSGSGTEFTLTISSLQPEDFATYYCQQLNSYPPKFTFGPGTKVEIK
B4: L6.dP02A05 (antibody, V domains shown)
VH: EVQLVQSGAEVKKPGASVKVSCMASGYTFTSYYMHWVRQAPGQGLEWMGIISPSGGGTSYAQKFQGRVTLTRDTSTSTVYMELSSLRSEDTAVYYCARWYDSTGSIDYWGQGTLVTVSS
VL: DIVMTQSPSSLSASVGDRVTITCRASQGIRNDLGWYQQKPGKAPKRLIYAASSLQSGVPSRFSGSGSGTEFTLTISSLQPEDFATYYCLQHNSYPILTFGGGTKVEIK
notes: human IgG1
B5: L12.bP10G07 (antibody, V domains shown)
VH: EVQLVQSGAEVKKPGASVKVSCKASGYIYSGYYMHWVRQAPGQGLEWMGWISPDSGGTNYAQRFQGRVTMTRDTSTTTAYMELSRLRSDDTAMYYCARGPRYSGTYFDYWGQGTLVTVSS
VL: QTVVTQPASVSGSPGQSITISCTGTSSDVGGYNYVSWYQQHPDKAPKLIIYDVSNRPSGVSNRFSGSKSGNTASLTISGLQAEDEAAYYCSSYTSSSTQVFGGGTKLTVL
notes: human IgG1
B6: L25.eP04C02 (antibody, V domains shown)
VH: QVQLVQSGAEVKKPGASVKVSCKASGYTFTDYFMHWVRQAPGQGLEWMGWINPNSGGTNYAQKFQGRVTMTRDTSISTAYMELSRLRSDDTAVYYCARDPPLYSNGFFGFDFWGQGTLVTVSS
VL: B5 VL with T2S, V4L, D43G, I49M, A87D, Q99V
notes: human IgG1

What was measured:
SARS-CoV-1 RBD (RBD-1) = SARS-CoV-1 RBD (RBD-1) (SARS-CoV-1); experiment: ELISA
SARS-CoV-2 RBD (RBD-2) [1] = biological target: SARS-CoV-2 RBD (RBD-2) (SARS-CoV-2); experiment: ELISA
[2] = biological target: T1, SARS-CoV-2 spike on pseudovirus or live virus (USA-WA1/2020, WT) (SARS-CoV-2, UniProt P0DTC2 14-1273); experiment: cell-based or functional assay
[3] = biological target: T2, SARS-CoV-1 spike on pseudovirus (SARS-CoV-1, UniProt P59594 14-1255); experiment: cell-based or functional assay
[4] = biological target: T2, SARS-CoV-1 spike on pseudovirus; experiment: cell-based or functional assay; remark: listed apart in the source
SARS-CoV-2 RBD (RBD-2) [5] = biological target: SARS-CoV-2 RBD (RBD-2) (SARS-CoV-2); experiment: flow, HeLa-ACE2, mAb:RBD=2:1
[6] = biological target: T1, SARS-CoV-2 spike on pseudovirus or live …; experiment: cell-based or functional assay; remark: listed apart in the source
SARS-CoV-2 RBD (RBD-2) [7] = biological target: SARS-CoV-2 RBD (RBD-2) (SARS-CoV-2); experiment: SPR, Fc-captured IgG
SARS-CoV-2 RBD (RBD-2) [8] = biological target: SARS-CoV-2 RBD (RBD-2) (SARS-CoV-2); experiment: flow, HeLa-ACE2, mAb:RBD=4:1

| Binder | EC50 (SARS-CoV-1 RBD (RBD-1)) [µg/mL] | EC50 (SARS-CoV-2 RBD (RBD-2) [1]) [µg/mL] | Maximum Plateau of Neutralization [2] [%] | PSV neutralization IC50 [2] [µg/mL] | PSV neutralization IC50 [3] [µg/mL] | PSV neutralization IC50 [4] [µg/mL] | % inhibition of RBD binding to hACE2 (SARS-CoV-2 RBD (RBD-2) [5]) [%] | MFI (RBD binding to cell surface) (SARS-CoV-2 RBD (RBD-2) [5]) | PSV neutralization IC50 [6] [µg/mL] | Kd (SARS-CoV-2 RBD (RBD-2) [7]) [nM] | koff (SARS-CoV-2 RBD (RBD-2) [7]) [s⁻¹] | kon (SARS-CoV-2 RBD (RBD-2) [7]) [M⁻¹ s⁻¹] | % inhibition of RBD binding to hACE2 (SARS-CoV-2 RBD (RBD-2) [8]) [%] | MFI (RBD binding to cell surface) (SARS-CoV-2 RBD (RBD-2) [8]) |
| --- | --- | --- | --- | --- | --- | --- | --- | --- | --- | --- | --- | --- | --- | --- |
| B1 | 0.017 | 0.016 | 55 | 34.6 | > 50 |  |  |  |  |  |  |  |  |  |
| B2 | 0.021 | 0.013 | 99 | 1.09 | 5.56 |  |  |  |  |  |  |  |  |  |
| B3 |  |  | 100 | 0.019 | > 50 | > 50 |  |  |  |  |  |  |  |  |
| B4 | > 50 | 0.025 | 100 | 0.059 | > 50 |  |  |  |  |  |  |  |  |  |
| B5 | > 50 | 1.41 | 100 | 0.328 | > 50 |  | 36.6 | 7120 | 0.865 | 220 | 0.0961 | 436000 | 49.2 | 5710 |
| B6 | > 50 | 0.026 | 100 | 0.155 | > 50 |  |  |  |  |  |  |  |  |  |
